Key:
[1] = molecular target: T1, human GITR, membrane bound (on activated human T cells or on 3A9-hGITR cells) (human, UniProt Q9Y5U5 26-241); experiment: cell-based or functional assay
T1 sequence: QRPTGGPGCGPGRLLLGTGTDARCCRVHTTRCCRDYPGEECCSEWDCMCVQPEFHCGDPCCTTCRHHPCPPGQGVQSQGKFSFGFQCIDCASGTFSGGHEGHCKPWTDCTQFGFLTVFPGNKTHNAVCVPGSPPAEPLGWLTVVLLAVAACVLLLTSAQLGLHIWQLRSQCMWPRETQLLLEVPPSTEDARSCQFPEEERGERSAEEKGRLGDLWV

[2] = molecular target: T1, human GITR, membrane bound (on …); experiment: FACS on activated human T cells
Protocol: (§1) Peripheral Blood Mononuclear Cells (PBMCs) isolated from human or cynomolgus monkey were activated with plate-coated anti-CD3 antibody (Clone: UCHT1 for human T cell activation; Clone: SP34 for cynomolgus T cell activation; both from BD Biosciences) and soluble anti-CD28 antibody (Clone:CD28.2 for both human and cynomolgus monkey, BD Biosciences) for 4 days (human)/or 5 days (cynomolgus monkey). The cells were tested for GITR mAb binding in a fluorescence-activated cell sorting (FACS)-based assay using a phycoerythrin (PE)-conjugated anti-human IgG antibody (Jackson ImmunoResearch). The samples were analyzed on a BD FACS Canto Flow Cytometer.

[3] = molecular target: T2, cynomolgus GITR, membrane bound (on activated cynomolgus T cells) (cynomolgus monkey, UniProt Q9Y5U5 26-241 (human entry)); experiment: FACS on activated cynomolgus T cells
T2 construct: also called cyno GITR
T2 chain: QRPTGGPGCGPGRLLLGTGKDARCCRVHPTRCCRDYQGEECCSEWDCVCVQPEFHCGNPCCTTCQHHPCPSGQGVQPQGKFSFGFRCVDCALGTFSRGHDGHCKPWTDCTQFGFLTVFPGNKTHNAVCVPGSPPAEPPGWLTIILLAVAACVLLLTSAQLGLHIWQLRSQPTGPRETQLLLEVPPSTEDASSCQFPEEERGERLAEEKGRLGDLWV
Protocol: as §1

[4] = molecular target: T3, recombinant human GITR/Fc (rHGITR/Fc, R&D systems CAT #689-GR) (human, UniProt Q9Y5U5 26-161, limits assumed); experiment: SPR; mAb captured (anti-kappa), rHGITR/Fc analyte
T3 construct: Bought; also called soluble GITR
T3 chain: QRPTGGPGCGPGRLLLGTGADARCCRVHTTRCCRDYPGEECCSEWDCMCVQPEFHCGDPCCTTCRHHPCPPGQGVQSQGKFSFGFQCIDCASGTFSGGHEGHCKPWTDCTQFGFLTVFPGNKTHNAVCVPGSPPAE
Protocol: Binding of anti-GITR antibodies to soluble GITR was determined by Biacore. […] The capture concentration of the mAb/volume was 2-40 μg/mL (5 μL at 10 μL/min). The antigen association time was 5 minutes at 15 μL/min, the antigen dissociation time was 6 minutes, and regeneration was performed with 50 mM HCl/50 mM NaOH (12 μL each at 100 μL/min).

mouse GITR = molecular target: T4, mouse GITR (mouse, UniProt O35714 20-228); experiment: stated in the Treg suppression assay with huGITR KI and wildtype mouse T cells
T4 construct: whole, on cells; also called muGITR
T4 sequence (looked up): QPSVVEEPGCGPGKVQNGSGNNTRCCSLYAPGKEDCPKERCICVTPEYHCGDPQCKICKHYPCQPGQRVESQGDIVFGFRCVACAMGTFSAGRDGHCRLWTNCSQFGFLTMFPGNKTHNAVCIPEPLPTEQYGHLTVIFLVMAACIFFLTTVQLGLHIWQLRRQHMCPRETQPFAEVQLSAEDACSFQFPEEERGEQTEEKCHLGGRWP
Description: From the previous experiment it was not clear whether the increased Teff proliferation was due to the anti-GITR antibodies acting on Treg and/or Teff cells. To address this question, human GITR “knock-in” (huGITR KI) mice were used. In these mice, the gene encoding mouse GITR, Tnfrsf18, was replaced with the human TNFRSF18 gene, and human GITR is expressed similarly to muGITR in wildtype mice; human GITR is expressed on both Teff and Treg cells with higher levels on the latter.
Treg and Teff cells were sorted based on CD4 and CD25 expression from huGITR KI and WT mice.

[5] = molecular target: T3, recombinant human GITR/Fc (rHGITR/Fc, …); experiment: SPR binning with rHGITR/Fc
[6] = molecular target: T1, human GITR, membrane bound (on …); experiment: FACS on PHA-activated human CD4+ and CD8+ T cells, anti-HA detection
Description: (§2) The samples were acquired on a FACS Canto Flow Cytometer (BD, San Jose) and analyzed with FlowJo software (Tree Star, Inc, Ashland, Oreg.).

[7] = molecular target: T1, human GITR, membrane bound (on …); experiment: FACS; pre-bound GITR-L against 0.5 ug/mL 28F3-hIgG1 (competitor) on activated T cells; partial inhibition
Description: as §2

B1: 28F3 (antibody, human IgG2, kappa)
heavy: QVQLVESGGGVVQPGRSLRLSCAASGFTFSSYGMHWVRQAPGKGLEWVAVIWYEGSNKYYADSVKGRFTISRDNSKNTLYLQMNSLRAEDTAVYYCARGGSMVRGDYYYGMDVWGQGTTVTVSSASTKGPSVFPLAPCSRSTSESTAALGCLVKDYFPEPVTVSWNSGALTSGVHTFPAVLQSSGLYSLSSVVTVPSSNFGTQTYTCNVDHKPSNTKVDKTVERKCCVECPPCPAPPVAGPSVFLFPPKPKDTLMISRTPEVTCVVVDVSHEDPEVQFNWYVDGVEVHNAKTKPREEQFNSTFRVVSVLTVVHQDWLNGKEYKCKVSNKGLPAPIEKTISKTKGQPREPQVYTLPPSREEMTKNQVSLTCLVKGFYPSDIAVEWESNGQPENNYKTTPPMLDSDGSFFLYSKLTVDKSRWQQGNVFSCSVMHEALHNHYTQKSLSLSPGK
light: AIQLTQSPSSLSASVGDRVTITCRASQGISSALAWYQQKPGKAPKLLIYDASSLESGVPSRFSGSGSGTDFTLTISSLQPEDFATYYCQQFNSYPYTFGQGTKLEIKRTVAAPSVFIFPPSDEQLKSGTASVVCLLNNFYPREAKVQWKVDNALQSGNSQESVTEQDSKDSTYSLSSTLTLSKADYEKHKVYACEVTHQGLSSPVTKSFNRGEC
notes: also called 13H2; 28F3 (IgG2)
[1]
  NFKB signaling (phospho-p65) EC50, CD4+ T cells: 12.8 nM
  NFKB signaling (phospho-p65) EC50, CD8+ T cells: 9 nM
  NFKB signaling (phospho-p65) Emax, CD4+ T cells: 69%
  NFKB signaling (phospho-p65) Emax, CD8+ T cells: 85%
[2]
  EC50: 0.192 nM
[3]
  EC50: 1.04 nM
[4]
  Kd: 14.8 nM
  koff: 0.00589 s⁻¹
  kon: 397000 M⁻¹ s⁻¹
Mouse GITR
  binding result: no binding

B2: 6G10 (antibody, human IgG2, kappa, V domains shown)
VH: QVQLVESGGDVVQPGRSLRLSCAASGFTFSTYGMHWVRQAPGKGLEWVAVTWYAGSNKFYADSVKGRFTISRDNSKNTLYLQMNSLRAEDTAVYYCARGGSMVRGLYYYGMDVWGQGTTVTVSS
VL: AIQLTQSPSSLSASVGDRVTITCRASQGISSALAWYQQKPGKAPKLLIYDASSLESGVPSRFSGSGSGTDFTLTISSLQPEDFATYYCQQFNSYPYTFGQGTKLEIKR
notes: Hybridoma-derived human antibody
[4]
  Kd: 1.87 nM
  koff: 0.000715 s⁻¹
  kon: 383000 M⁻¹ s⁻¹

B3: 8A6 (antibody, human IgG2, kappa, V domains shown)
VH: QVQLVESGGGVVQPGRSLRLSCTASGFTFSSYGMQWVRQAPGKGLEWVAVIWYEGSNKYYADSVKGRFTISRENSKNTLYLQMNSLRAEDTAVYYCARGGLMVRGLFYYGMDVWGQGTTVTVSS
VL: AIQLTQSPSSLSASVGDRVTITCRASQGISSALAWYQQKPGKAPKFLIYDASSLESGVPSRFSGSGSGTDFTLTISSLQPEDFATYYCQQFNSYPYTFGQGTKLEIKR
notes: as for B2
[5]
  binding result: binds

B4: GITR.6.G2.G1f (antibody, human IgG2)
heavy: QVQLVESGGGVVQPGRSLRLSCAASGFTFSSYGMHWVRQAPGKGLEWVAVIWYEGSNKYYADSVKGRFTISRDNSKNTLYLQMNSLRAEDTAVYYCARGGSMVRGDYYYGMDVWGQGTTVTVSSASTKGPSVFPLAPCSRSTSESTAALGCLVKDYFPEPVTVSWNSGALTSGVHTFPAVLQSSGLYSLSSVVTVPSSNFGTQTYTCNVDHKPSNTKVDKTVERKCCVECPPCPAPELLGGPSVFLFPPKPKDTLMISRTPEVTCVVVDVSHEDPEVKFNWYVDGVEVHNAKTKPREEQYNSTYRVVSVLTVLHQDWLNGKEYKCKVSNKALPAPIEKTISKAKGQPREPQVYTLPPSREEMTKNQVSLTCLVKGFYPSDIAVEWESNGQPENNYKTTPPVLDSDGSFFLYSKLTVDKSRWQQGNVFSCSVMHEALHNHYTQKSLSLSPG
VL: AIQLTQSPSSLSASVGDRVTITCRASQGISSALAWYQQKPGKAPKLLIYDASSLESGVPSRFSGSGSGTDFTLTISSLQPEDFATYYCQQFNSYPYTFGQGTKLEIK
[1]
  NFKB signaling (phospho-p65) EC50, CD4+ T cells: 9 nM
  NFKB signaling (phospho-p65) EC50, CD8+ T cells: 3.77 nM
  NFKB signaling (phospho-p65) Emax, CD4+ T cells: 100%
  NFKB signaling (phospho-p65) Emax, CD8+ T cells: 92%

B5: 3C3 (antibody, human IgG1, kappa, V domains shown)
VH: QVQLQQWGAGLLKPSETLSLTCAVYGGSFSGYYWTWIRQPPGKGLEWIGKINHSGNTNYNPSLKSRVTISVDTSKNQFSLKLSSVTAADTAVYYCARLGAFDAFDIWGQGTMVTVSS
VL: DIQMTQSPSSLSASVGDRVTITCRASQGISSWLAWYQQKPEKAPKSLIYAASSLQSGVPSRFSGSGSGTDFTLTISSLQPEDFATYYCQQYNSYPYTFGQGTKLEIKR
notes: Hybridoma-derived; also called GITR.3; 3C3-1
[2]
  EC50: 0.0492 nM
[3]
  binding result: no binding

B6: 14E3 (antibody, V domains shown)
VH: QVQLQQWGAGLLKPSETLSLTCAVYGGSFSGYYWSWIRQPPGKGLEWIGEINHSGNTYYNPSLKSRVTISVDTSKNQLSLKLSSVTAADTAVYYCARFGSNDAFDIWGQGTMVTVSS
VL: DIQMTQSPSSLSASVGDRVTITCRASQGISSWLAWYQQKPEKAPKSLIYAASSLQSGVPSRFSGSGSGTDFTLTISSLQPEDFATYYCQQYNSYPPTFGQGTKVEIKR
notes: as for B2
[5]
  binding result: binds

B7: 2G6 (antibody, human IgG2, kappa, V domains shown)
VH: QVQLVESGGGVVQPGGSLRLSCAASGFILSDYGMHWVRQAPGKGLEWVTVIWYDGSNKFYVDSVKGRFTISRDNSKNTLYLQMNSLRVEDTAVYYCARGGRLATGHFYYVMDVWGQGTTVTVSS
VL: DIQMTQSPSSLSASVGDRVTITCRASQGISSWLAWYQQKPEKAPKSLIYAASSLQSGVPSRFSGSGSGTDFTLTISSLQPEDFATYYCQQYNSYPYTFGQGTKLEIKR
notes: as for B2
[4]
  Kd: 12 nM
  koff: 0.00147 s⁻¹
  kon: 123000 M⁻¹ s⁻¹

B8: 18E10 (antibody, human IgG2, kappa, V domains shown)
VH: QVQLVESGGGVVQPGRSLRLSCAASGFTFSSYGMHWVRQAPGKGLEWVAVIWYAGSNKYYADSVKGRFTISRDNSKNTLYLQMNSLRAEDTAVYYCARGGRIAVAFYYSMDVWGQGTTVTVSS
VL: DIQMTQSPSSLSASVGDRVTITCRASQGISSWLAWYQQKPEKAPKSLIYAASSLQSGVPSRFSGSGSGTDFTLTISSLQPEDFATYYCQQYNSYPYTFGQGTKLEIKR
notes: as for B2
[2]
  EC50: 0.146 nM
[3]
  EC50: 0.913 nM
[4]
  Kd: 13.3 nM
  koff: 0.00241 s⁻¹
  kon: 182000 M⁻¹ s⁻¹

B9: 19D3 (antibody, human IgG2, kappa, V domains shown)
VH: QVQLVESGGGVVQPGRSLRLSCAASGFTFSSYGFHWVRQAPGKGLEWVAVIWYAGSNKFYADSVKGRFTISRDNSKNTLYLQMNSLRAEDTAVYYCARGGQLDYYYYYVMDVWGQGTTVTVSS
VL: DIQMTQSPSSLSASVGDRVTITCRASQGISSWLAWYQQKPEKAPKSLIYAASSLQSGVPSRFSGSGSGTDFTLTISSLQPEDFATYYCQQYNSYPYTFGQGTKLEIKR
notes: as for B2
[2]
  EC50: 0.363 nM
[4]
  Kd: 16.3 nM
  koff: 0.0045 s⁻¹
  kon: 276000 M⁻¹ s⁻¹

B10: recombinant human GITR ligand trimer (R&D Systems 6987-GL) (ligand)
chain: LQLETAKEPCMAKFGPLPSKWQMASSEPPCVNKVSDWKLEILQNGLYLIYGQVAPNANYNDVAPFEVRLYKNKDMIQTLTNKSKIQNVGGTYELHVGDTIDLIFNSEHQVLKNNTYWGIILLANPQFIS
notes: Bought soluble trimer, detected through an HA tag; also called rhGITR-L; hGITR-L trimer
[6]
  EC50: 16 ng/mL
[7]
  IC50: 2.4 ng/mL

Source: patent US20220175921A1 (Bristol-Myers Squibb, published 2022)
